Reference: a protein production outcome set (Wang et al. 2014)

Assay: label from the status in PepcDB records

Question: For “MALGLLPLVLLTLSIFIYLVSKMSWKMGALLNFLAGLFTILYVFTLKVGTFEKLDLFGLNIQFEWTNVSFYFSFVSLLVIVSVMLFSTKWLETQKYRASYNMFLLMVTAGSLGVFMAADLITLYVFWEIAVLSSLLIVPMEKKEARKAVVVYAVMSAVGTYAFLYGTFLAYQRYGTLNIHGIAQGMLNDTSIGFKMAVFLLLSAAGIAKSGIFPLHIWLRETHGLAPNAFSSVLSGQFIKLGNYIFLLVLSVIPSLKVFSEVTVYSGIPLPNYILIALGNVSIVIGTLMAIKQDDMKMLMAYSSVANGGYILIGIGTMDPLGFEGGMFHIFNHAVASAVIFMAFAAVIYRTKTQKISEMGGLIHKMPVTFLVYLFSIISLAGIPPMSGFISKWMIYQALVRKGMFITAFLAFFGSIGSFLYVFRPLAGVFLGQLPRKYRDVKEAPAVMLTPMVLLVLISFFLGVWPFPILQAIEKIRVDLDVAPSFKISDPENWLVKGFAGSWNPVLVFGLFLVGFIVAYILYSLFPRPKKVDLLAPHREEGTPINIYTGGEFIYNPDLYHYNTKFYAGFERMYEKHPSWEKLLKMFGKLFHDAGEWIHSWFFEPSSSAYTFWVVVTLLLVFWVRW”, which protein production is on record?
Answer: failed

Question: For “SNQEKLQRTMIHFNNPEVQAFLAVNTFTITGHGETKQLTEMLRSVLNQLAAVSLTSLRRLAEALPKQSVDGKAPLATGEDDDDDEVPGIMENFDEASKNEAN”, which protein production is on record?
Answer: failed

Question: For “MWFQNYLLAKFMMNRKGLMANYRVWRRRWFYPLISVVVAVSLCLGTPLVGRAIDLRPLLLQGVQVLQLSNISDRQEVDLGNQMNQQLRSSEVKISRNAEITRYVDQIGQRLVANSDRPNLPFTFQVVENDAVNAFATLGGFVYIHTGLLKTADNEAELASVIAHEIGHIGGRHLVKQMRQRALASGLASATGLDRNTAVGLGVELALNRPRSRQDEFDADTRGLRTLTRAGYAPSAMVSFMQKLTKGGGSVPAFLSTHPATGDRITSLRRAINSQGSNGRDGLDNAAYRARIRSIL”, which protein production is on record?
Answer: failed

Question: Which protein production does the source give for “MNKHFLETLLQKHQQAGTFPSTSDICRLVTRILLVLFPEQTQAKYKDVADVEIQMGVYQKELTRLLGSMQKDLPAPANELSDAFMNELSVIYDKLLLDIQAILNGDPAARSEFEVIRAYPGFYAIAFYRMAHALYKLNIPLMPRIIMEYAHSKTGIDIHPGATIGKNFYIDHGTGIVIGETAHIGDNVKVYQGVTLGALSVSKDKADTKRHPTIEDNVIIYSGATILGGKTVVGHDSIIGGNVWLTESVQPFTRVYHKAQIEVIIKNADPSLNETENNEEAIRKMKKAESENTKKNS” here?
Answer: failed

Question: For “MYYLFIFEMLWLLFVIVFVSFLSFSDFDRKKVNYFSVVIVGILLSITAGFRNVGGVDTDYAIYKNHYNGELGSYSYELFEPGYNTVVWLGNIVGLSFNLFVFILTSICLLLLLKLIFKYSKYPMLSVMIYLGTYFLFYNMVLMRQMVSVVMFLYCINYTIEKKYIKCLLCFLVGLSFHLSMIVFLPAFFVLRYFKLNIWNIIFILIIGVFLKIVGAINLVMFVGGVIESRMANYLAGDGFTLNIMEYIKMIIIICAILILFPKLIGDYFNEILIKSYCVFFILIFAFGDIEIFFRIAMYFDLVILFLIPILFDKISMTRFSRITIYTLVVIFFAFSFIYRVHNFDNGEFYQYKFFFLE”, which protein production is on record?
Answer: failed

Question: For “SLSLIRKKGFYKQDVNKTAWELPKTYVSPTHVGSGAYGSVCSAIDKRSGEKVAIKKLSRPFQSEIFAKRAYRELLLLKHMQHENVIGLLDVFTPASSLRNFYDFYLVMPFMQTDLQKIMGLKFSEEKIQYLVYQMLKGLKYIHSAGVVHRDLKPGNLAVNEDCELKILDFGLARHADAEMTGYVVTRWYRAPEVILSWMHYNQTVDIWSVGCIMAEMLTGKTLFKGKDYLDQLTQILKVTGVPGTEFVQKLNDKAAKSYIQSLPQTPRKDFTQLFPRASPQAADLLEKMLELDVDKRLTAAQALTHPFFEPFRDPEEETEAQQPFDDSLEHEKLTVDEWKQHIYKEIVNFSPI”, which protein production is on record?
Answer: not failed

Question: For “MTMLDAAAPPDLAGLFAPAQRRSRTVDWQEPGPVARAAMAMSGLEVMQAIRDGRLPPPPLARLIGFKMAEVHRGRIVMQLDPDQSLENTAGLLHGAIAAALLDTAMGCAISTQQPAGQGSVTMDLKLSYLRPLSVRSGTIVAEGRVVKLGRQSSYTEGFVYDGAGKLAVHATATFAMLGAGPVAAPHPHES”, which protein production is on record?
Answer: failed

Question: With “MRDILKKELILLGILISISFAGCVDQNPEEYYSKGILQYDDGNYTESIDLFEKAIQLNPEESKYWLMKGKALYNLERYEEAVDCYNYVINVIEDEYNKDVWAAKADALRHIEGKEVEAEIAEARAK” as the sequence, how does the protein production read?
Answer: failed

Question: With “MANYEFSQVSGDRPGCRLSRKAQIGLGVGLLVLIALVVGIVVILLRPRSLLVWTGEPTTKHFSDIFLGRCLIYTQILRPEMRDQNCQEILSTFKGAFVSKNPCDITREDYAPLVKLVTQTIPCDKTLFWSKSKHLAHQYTWIQGKMFTLEDTLLGYIADDLRWCGDPSTSDMNYVSCPHWSENCPNNPITMFWKVISQKFAEDACGVVQVMLDGSLREPFYKDSTFGSVEVFSLDPNKVHKLQAWVMHDIEGASSNACSSSSLNELKMIVQKRNMIFACVDNYRPARFLQCVKNPEHPSCRLNT” as the sequence, how does the protein production read?
Answer: not failed

Question: Which protein production does the source give for “EHIARRKAGDAAERLVKLIPAFCHHMPDYPDTQETCEAAVVKLKAGDIVLVKPGETIPVDGTVLEGSSAVNESMLTGESLPVAKMPSEKVTAGTLNTQSPLIIRTDRTGGGTRLSHIVRLLDRALAQKPRTAELAEQ” here?
Answer: failed

Question: With “MAGLPGSVALIIVATAVIWKGSAYFERAAERLSKYYGLPVAVHGAIVVAVGSSFPEISSVVISTVIHDEFSLGVGAIVGSAIFNLLVIPALAALSSEELRSTRDIVHKDAQFYIISVLILFIVFALGATYVPGGTNRAAILTPTLVAVPLMAYGIYVFLHQQDASEHVADETHSVRPGREWGMLGVGLVIITVGVEGMVQGALSLGVIFDTPTFLWGLTVIAAGTSLPDAFVSVRAAKDDDSVTSLTNVLGSNTFNLLVAIPVGVLLAGRATIDFLVAIPTMGFLGAATLVFIVFIRTDLELTDREAYTLLGLYVVFVCWMALESVGLIETVSGI” as the sequence, how does the protein production read?
Answer: failed

Question: Which protein production does the source give for “METPNPLTLSELPHDLLRNIFNRLSFADFHRATWNSISKQTAPPKTKSPWLILFPDEGVHGCVLYNPDEDRIYKSVRDFSGTIFLANSGNWFLVMDSKSNLYIIDVFSENRIDLPPLESLLSDNFTFEQKGDKELKWQASNDQILVFRLPRAEELRGILWVDEKMKEFVAVWFLEDSCNFLAFYKKADDHYSHIQLEYVITDVFQSVSDIVLHGCFLYIGVGDYIQIIDLSKDQGFKDVTRNYLFNVHNGPWGFRSIFNLVVTTSGEVLMVLNNLYEKNIESEKSFRIFKKDPNPDPNKHDNLLVEVDSLGNEEVMLLDLGITMHGIEPNSIYFTRHDRVVHRLYIS” here?
Answer: not failed

Question: For “MSKLSLIQQLKQQKLSVGILSANWLQLNEEVTTLLENQINVLHFDIADGQFSSLFTVGAIGIKYFPTHCFKDVHLMVRNQLEVAKAVVANGANLVTLQLEQYHDFALTIEWLAKQKTTYANQVYPVLIGACLCPETPISELEPYLDQIDVIQLLTLDPRNGTKYPSELILDRVIQVEKRLGNRRVEKLINIDGSMTLELAKYFKQGTHQIDWLVSGSALFSGELKTNLKVWKSSIM”, which protein production is on record?
Answer: not failed

Question: For “MTYQALMFDIDGTLTNSQPAYTTVMREVLATYGKPFSPAQAQKTFPMAAEQAMTELGIAASEFDHFQAQYEDVMASHYDQIELYPGITSLFEQLPSELRLGIVTSQRRNELESGMRSYPFMMRMAVTISADDTPKRKPDPLPLLTALEKVNVAPQNALFIGDSVSDEQTAQAANVDFGLAVWGMDPNADHQKVAHRFQKPLDILELFK”, which protein production is on record?
Answer: not failed

Question: Which protein production does the source give for “MDLLEYQVKEWFGEIGIPVLPSQRIDHPTDLKRLKIRYPIVLKSQVHAGEREKVGGVRMVETTIDAIAAAQTIFNLSIWGELPEVLLAESKYNSHQEFYLAVVLDTAVCRPVLLGSTEADIDLELADQKMQYVVVEQEFSPFYARRLALKMGLQGTLMQSVSTVLEKMYQLFVQKDLDLVEINPLGVNLAGEVMALNGKVGVNERAIGRHPEIAAMAAKIIPRHYDKSFSNGRDWNNLEKQRRIGILGNGTGSILATYDLVASGGGKPGICLNLRHAAITDLSPTKFGDRLTKGLNTLAADKNTQVILINLLGSIPQPEEAAQAIAQFIQQNKGEYPPSIAKSNGKNLSQHQSPQLVIRLAGSELNAAKEVLAALQTHEEGLILVEDLDEAVATAVRLTKSHAYKKVS” here?
Answer: failed

Question: Which protein production does the source give for “MTQTNNPLHGITLETIITQLVEHYGWEELGARIKIRCFTEAPSIKSSLRFLRKTDWAREKVEYLYLKTNKLPLPAAKSIQAPAKEPSKKSAPKPNSKPTQTKVVTPTPAVEGQVNSHIWGKRDLEHHHHHH” here?
Answer: not failed
